Measured values reported in publication PMC7010297, “How the initiating ribosome copes with ppGpp to translate mRNAs” (PLoS Biology, 2020).
Where “and” joins values, the source holds several entries; their conditions need not be identical. Equal entries are not always repeated.

How the values were obtained:
30S IC = 30S IC (Escherichia coli, UniProt P0A705); assay: ppGpp tolerance of 30S IC formation by MST; format: binding; set-up: 6xHis (N); made in house; conditions: 30S ICs with 4-fold excess of ppGpp (0.2 mM) over GTP vs without alarmone
Procedure: Fig 7 SETIs and ppGpp tolerance. (A) Translation initiation efficiency as a function of mRNAs along five steps of transition from NS to S conditions. […] Symbols and error bars represent averages of three replicates and standard deviations, respectively (S1 Data). (C) Comparison of ppGpp tolerance as calculated from the ratio of translation initiation efficiencies found in the presence of 0.2 mM ppGpp over the efficiencies obtained in the absence of the alarmone (S1 Data). […] All 30S IC components are as in Fig 1. Dashed line indicates the average tolerance of all mRNAs lacking the SETI element.

30S-bound IF2 (30S IC) = target: T1, 30S-bound IF2 (30S IC) (Escherichia coli, UniProt P0A705); assay: ppGpp (or GDP) to GTP competitive assay for 30S IC formation by MST; format: binding; conditions: S4G Fig
T1 construct: 6xHis (N); made in house
Procedure: MST was calculated from the respective fluorescence time dependencies (S3 Fig). […] Symbols as in (B). […] Continuous lines indicate nonlinear regression fittings with quadratic (B and E) or same-site competition (G) functions. Three measurements were performed; mean and standard deviations are plotted (S1 Data).
[…] Symbols are as indicated, 3 measurements were performed, and mean and standard deviation are plotted (S1 Data). Continuous lines show nonlinear regression fittings with a same-site inhibition model. […] (PDF) Click here for additional data file.

B1: mTufA: TufA mRNA with full-length 5′ UTR, in vitro transcribed, codes for EF-Tu (nucleic acid)
chain: GGUUCUAUCGCCUUUAAAGAAGGCUUUAAGAAAGCGAAACCAGUUCUGCUUGAGCCGAUCAUGAAGGUUGAAGUAGAAACUCCGGAAGAGAACACCGGUGACGUUAUCGGUGACUUGAGCCGUCGUCGUGGUAUGCUCAAAGGUCAGGAAUCUGAAGUUACUGGCGUUAAGAUCCACGCUGAAGUACCGCUGUCUGAAAUGUUCGGAUACGCAACUCAGCUGCGUUCUCUGACCAAAGGUCGUGCAUCAUACACUAUGGAAUUCCUGAAGUAUGAUGAAGCGCCGAGUAACGUUGCUCAGGCCGUAAUUGAAGCCCGUGGUAAAUAAGCCUAAGGGUUAAUACCAAAGUCCCGUGCUCUCUCCUGAAGGGGAGAGCACUAUAGUAAGGAAUAUAGCCGUGUCUAAAGAAAAAUUUGAACG
- ppGpp tolerance (30S IC): up to 25%
- MST Avg (30S-bound IF2 (30S IC); Log [GDP] 0.29): 1108.89 a.u.
- MST Replicates (30S-bound IF2 (30S IC); Log [GDP] 0.29): 1106.67 a.u. and 1109.49 a.u. and 1110.53 a.u.
- MST Avg (30S-bound IF2 (30S IC); Log [GDP] 0.59): 1108.25 a.u.
- MST Replicates (30S-bound IF2 (30S IC); Log [GDP] 0.59): 1104.73 a.u. and 1108.81 a.u. and 1111.20 a.u.
- MST Avg (30S-bound IF2 (30S IC); Log [GDP] 0.89): 1106.94 a.u.
- MST Replicates (30S-bound IF2 (30S IC); Log [GDP] 0.89): 1105.25 a.u. and 1107.28 a.u. and 1108.30 a.u.
- MST Avg (30S-bound IF2 (30S IC); Log [GDP] 1.19): 1104.11 a.u.
- MST Replicates (30S-bound IF2 (30S IC); Log [GDP] 1.19): 1101.85 a.u. and 1104.36 a.u. and 1106.13 a.u.
- MST Avg (30S-bound IF2 (30S IC); Log [GDP] 1.49): 1094.23 a.u.
- MST Replicates (30S-bound IF2 (30S IC); Log [GDP] 1.49): 1091.94 a.u. and 1094.86 a.u. and 1095.88 a.u.
- MST Avg (30S-bound IF2 (30S IC); Log [GDP] 1.80): 1077.93 a.u.
- MST Replicates (30S-bound IF2 (30S IC); Log [GDP] 1.80): 1075.66 a.u. and 1079.00 a.u. and 1079.14 a.u.
- MST Avg (30S-bound IF2 (30S IC); Log [GDP] 2.10): 1056.10 a.u.
- MST Replicates (30S-bound IF2 (30S IC); Log [GDP] 2.10): 1053.33 a.u. and 1057.00 a.u. and 1057.97 a.u.
- MST Avg (30S-bound IF2 (30S IC); Log [GDP] 2.40): 1017.56 a.u.
- MST Replicates (30S-bound IF2 (30S IC); Log [GDP] 2.40): 1014.74 a.u. and 1018.61 a.u. and 1019.33 a.u.
- MST Avg (30S-bound IF2 (30S IC); Log [GDP] 2.70): 975.78 a.u.
- MST Replicates (30S-bound IF2 (30S IC); Log [GDP] 2.70): 973.53 a.u. and 976.74 a.u. and 977.08 a.u.
